This is an account of results in patent publication US6541254B1, “Glycosylation variants of iduronate 2-sulfatase” (Women's and Children's Hospital, priority 1991, dated 2003).

Bounds are passed on as bounds.

The Km is the substrate concentration at which the rate is half of its maximum.

Data set [1] is described as follows: Catalytic properties of IDS with radiolabelled disaccharide substrate. The class given is biochemical. The conditions noted are these: for Specific Activity / pH Optimum: IdoA2S-anM6S substrate; for Km / Vmax: IdoA2S-anM6S, 50 mM sodium acetate pH 4.5, 500 μg/ml BSA. The procedure:
(§1) Media samples, or cell lysates prepared by six cycles of freeze/thaw in 0.5 M-NaCl/20 mM-Tris/HCl, pH 7.0, were clarified by microcentrifugation (12,000×g, 4° C., 5 min) and were either assayed directly or after dilution in assay buffer. […] IDS was assayed using the radiolabelled disaccharide substrate IdoA2S-anM6S (3). Protein estimations were according to the method of Lowry et al (29).
(§2) The rIDS was purified from the collected medium by a 3-step column procedure. The medium was dialysed overnight at 4° C. against 30 mM-Tris/HCl, pH 7.0/10% v/v glycerol/0.1 mM-DTE/3 mM-NaN3 (buffer A) and was applied to a PBE94 column (8 cm×1.5 cm) equilibrated in buffer A (flow-rate 1.0 ml/min) and then washed with 100 ml of buffer A. Bound proteins were […] with polybuffer 74 that had been diltured 1:18 with water, the pH adjusted to 4.0 with HCl and the solution made 10% v/v in glycerol, 0.1 mM-DTE and 3 mM-NaN3. The column was further eluted with 100 ml 15 mM-ditheriothreitol/3 mM-NaN3 (buffer B). The rIDS eluted in buffer B was applied at a flow-rate of 1.0 ml/min to a Blue A agarose column (6 cm×0.7 cm) also equilibrated in buffer B. The rIDS activity from this step was applied in 1.0 ml volumes to an LKB Ultrachrom GTi f.p.l.c. system with a TSK G3000SW Ultrapac column (30 cm×0.8 cm) equilibrated and eluted in buffer B at a flow-rate of 0.5 ml/min and pressure of 150 kPa. Fractions containing rIDS activity were pooled and analysed under denaturing and non-denaturing condition on SDS-PAGE (10% w/v acrylamide) to estimate apparent subunit size. Gels were stained with either Gradipure Colloidal Electrophoresis Gel Stain (Gradipure, Pyrmont, NSW) or silver stained accordinng to the method of Merril et al (32). Native molecular mass was determined using the f.p.l.c. system as described elsewhere (3) Kinetic (Km, V max, pH optima) and inhibition data were obtained as previously described (3).
Although both the liver and rIDS show a similar Km towards the disaccharide substrate (IdoA2S-anM6S) in the standard assay (50 mM sodium acetate pH 4.5 and 500 μg/ml BSA) they have a substantially different V max. […] Alternatively, this may reflect a difference between enzyme produced in CHO cells and in liver. Both the (CHO) recombinant and (liver) mature form of the enzyme have similar pH optima and specific activities (Table 2).

Data set [2] deals with MPS II fibroblasts (SF-635 and SF-1779). Nature of the data set: Correction of MPS II fibroblasts by rIDS. It counts as cell-based, human. As to conditions: for 35S-cpm/mg Cell Protein / β-Hexosaminidase activity in cell lysate / IDS activity in cell lysate: 5 × 10^4 pmol/min per ml rIDS, 72 hours; for IDS activity in cell lysate: undialysed lysate. As to the method: Human diploid fibroblasts were established from skin biopsies submitted to this hosptial for diagnosis (28). Cell lines were maintained according to established procedures in BME, 10% v/v FCS and antibiotics unless otherwise stated. The two MPS II skin fibroblast cell lines used in this study (SF-635 and SF-1779) both have low residual IDS activity.
as §1
The fluorogenic substrate 4-methylumbelliferyl-2-acetamido-2-deoxy-β-D-glucopyranoside was used to measure β-hexosaminidase activity (31).
For these experiments IDS was obtained from CHOEFI2S-9 cells cultured in CHO-SFM medium suppplemented with 10 mM-NH4C1 and antibiotics. […] Fibroblasts from a normal individual (SF-3409) and from two MPS II patients (SF-635 and SF-1779) were grown to confluency in 25 cm^2 flasks and radiolabelled with Na2^35SO4 as previously described (27). The labelled cells were then exposed to 5×10^4 pmol/min per ml of rIDS for 72 hours. After harvesting the cells by trypsin treatment and washing by centrifugation/resuspension in PBS, the cell pellet was resuspended in 100 μl of 20 mM-Tris/HCl, pH 7.0/0.5 M-NaCl, and the cell lysates prepared as described above. The cell extracts were analysed for IDS activity, total protein, β-hexosaminidase activity and radioactivity.

Another data set concerns MPS II cells (SF-1779). Nature of the data set: Endocytosis of rIDS with or without mannose-6-phosphate. The class given is cell-based, human. The conditions noted are these: rIDS at 5×10^4 and 5×10^3 pmol/min per ml, 5 mM mannose-6-phosphate. As to the method:
Cells from SF-1779 were plated in 20 wells (3.83 cm^2) and allowed to reach confluency. Wells 1 to 4 were untreated controls. To each of wells 5 to 12 and 13 to 20 was added 1.0 ml of medium containing rIDS at 5×10^4 pmol/min per ml and 5×10^3 pmol/min per ml respectively. In addition the medium in wells 9 to 12 and 17 to 20 was made 5 mM mannose-6-phosphate. The cells were then incubated for 6 hours after which time they were rinsed with medium and fresh medium added. The cells were incubated overnight and then harvested, washed and lysed as described above. The cell lysates were dialysed against 5 mM-sodium acetate, pH 4.0, for 16 h at 4° C. and then analysed for IDS activity and total protein.

Data set [3] relates to MPS II skin fibroblasts (SF-635). Put plainly: Subcellular fractionation of rIDS-treated cells on Percoll density gradients. The class given is cell-based, human. As to conditions: corrected MPS II cells; Percoll gradient of post-nuclear supernatant. The procedure: Cells from SF-635 were grown to confluency in 75 cm^2 flasks and then exposed to medium supplemented with 5×10^4 pmol/min per ml rIDS. The cells were incubated for 72 h then harvested and fractionated on Percoll density gradients as described in Anson el al (27). The resulting gradient was collected in 1.0 ml fractions by bottom puncture and the fractions analysed for IDS and β-hexosaminidase activity.

Data set [4] is described as follows: Chromatofocusing on PBE94. The class given is physicochemical. As to conditions: majority of rIDS (pool B). As to the method: as §2, with “Gels were stained with either Gradipure Colloidal Electrophoresis Gel Stain (Gradipure, Pyrmont, NSW) or silver stained accordinng to the method of Merril et al (32).” left out

B1: rIDS: Recombinant human iduronate 2-sulfatase, highly glycosylated, secreted by CHO-K1 clonal line CHOEFI2S-9 (protein)
chain: SETQANSTTDALNVLLIIVDDLRPSLGCYGDKLVRSPNIDQLASHSLLFQNAFAQQAVCAPSRVSFLTGRRPDTTRLYDFNSYWRVHAGNFSTIPQYFKENGYVTMSVGKVFHPGISSNHTDDSPYSWSFPPYHPSSEKYENTKTCRGPDGELHANLLCPVDVLDVPEGTLPDKQSTEQAIQLLEKMKTSASPFFLAVGYHKPHIPFRYPKEFQKLYPLENITLAPDPEVPDGLPPVAYNPWMDIRQREDVQALNISVPYGPIPVDFQRKIRQSYFASVSYLDTQVGRLLSALDDLQLANSTIIAFTSDHGWALGEHGEWAKYSNFDVATHVPLIFYVPGRTASLPEAGEKLFPYLDPFDSASQLMEPGRQSMDLVELVSLFPTLAGLAGLQVPPRCPVPSFHVELCREGKNLLKHFRFRDLEEDPYLPGNPRELIAYSQYPRPSDIPQWNSDKPSLKDIKIMGYSIRTIDYRYTVWVGFNPDEFLANFSDIHAGELYFVDSDPLQDHNMYNDSQGGDLFQLLMP
Take B1: in data set [1], the “Specific Activity” value is 20.8 μmol/min per mg, the “pH Optimum” value was determined as 4.5, the Michaelis constant (Km) amounted to 3 µM and the Vmax was found to be 3.35 μmol/min per mg. Also, the “Clearance of stored 35S-labelled material” value in data set [2] (MPS II fibroblasts, rIDS at 5×10^4 pmol/min per ml) is recorded as “clearance of this stored product to levels comparable to those seen in control fibroblasts”. The “IDS activity level above normal” value in data set [2] (SF635, rIDS at 5×10^4 pmol/min per ml) worked out at 80 fold. Besides, the “IDS activity level above normal” value in data set [2] (SF1779, rIDS at 5×10^4 pmol/min per ml) came to 40 fold. Besides, the “35S-cpm/mg Cell Protein” value in data set [2] (SF-635 cells labelled with Na2 35SO4) is 9018 ± 1988 cpm/mg. In data set [2] (SF-635 cells), the “β-Hexosaminidase activity in cell lysate” value was 257 ± 14 nmol/min per mg and the “IDS activity in cell lysate” value was determined as 1140 ± 50 pmol/min per mg. The “35S-cpm/mg Cell Protein” value in data set [2] (SF-1779 cells labelled with Na2 35SO4) stood at 5136 ± 502 cpm/mg. For the same molecule, in data set [2] (SF-1779 cells), the “β-Hexosaminidase activity in cell lysate” value came to 118 ± 11 nmol/min per mg and the “IDS activity in cell lysate” value was found to be 562 ± 99 pmol/min per mg. Besides, the “Effect on activity of second lysosomal enzyme β-hexosaminidase” value in data set [2] (endocytosis of IDS in MPS II fibroblasts) is reported as “not affected”. Moreover, the “Uptake of IDS activity in presence or absence of mannose-6-phosphate” value in the data set with MPS II cells (SF-1779) is “uptake is mediated via the mannose-6-phosphate receptor”. For the same molecule, the “Subcellular localisation of endocytosed enzyme” value in data set [3] is on record as “fractionated with the lysosomal enzyme β-hexosaminidase in the dense fraction of the gradient”. Further, the pI in data set [4] is recorded as < 4.0.

B2: Liver IDS: Naturally glycosylated mature iduronate 2-sulfatase purified from human liver (protein, UniProt P22304 34-455; P22304 456-550, looked up)
Iduronate 2-sulfatase 42 kDa …: TDALNVLLIIVDDLRPSLGCYGDKLVRSPNIDQLASHSLLFQNAFAQQAVCAPSRVSFLTGRRPDTTRLYDFNSYWRVHAGNFSTIPQYFKENGYVTMSVGKVFHPGISSNHTDDSPYSWSFPPYHPSSEKYENTKTCRGPDGELHANLLCPVDVLDVPEGTLPDKQSTEQAIQLLEKMKTSASPFFLAVGYHKPHIPFRYPKEFQKLYPLENITLAPDPEVPDGLPPVAYNPWMDIRQREDVQALNISVPYGPIPVDFQRKIRQSYFASVSYLDTQVGRLLSALDDLQLANSTIIAFTSDHGWALGEHGEWAKYSNFDVATHVPLIFYVPGRTASLPEAGEKLFPYLDPFDSASQLMEPGRQSMDLVELVSLFPTLAGLAGLQVPPRCPVPSFHVELCREGKNLLKHFRFRDLEEDPYLPG
Iduronate 2-sulfatase 14 kDa …: NPRELIAYSQYPRPSDIPQWNSDKPSLKDIKIMGYSIRTIDYRYTVWVGFNPDEFLANFSDIHAGELYFVDSDPLQDHNMYNDSQGGDLFQLLMP
modifications: natural glycosylation, liver-purified
notes: Naturally glycosylated mature iduronate 2-sulfatase purified from human liver
As to B2, in data set [1], the “Specific Activity” value was 11.9 μmol/min per mg, the “pH Optimum” value is reported as 4.5, the Km is 4 µM and the Vmax is on record as 80 μmol/min per mg.
